B1: A135 subunit of RNA polymerase I (natural protein, S. cerevisiae)
chain: MSKVIKPPGQARTADFRTLERESRFINPPKDKSAFPLLQEAVQPHIGSFNALTEGPDGGLLNLGVKDIGEKVIFDGKPLNSEDEISNSGYLGNKLSVSVEQVSIAKPMSNDGVSSAVERKVYPSESRQRLTSYRGKLLLKLKWSVNNGEENLFEVRDCGGLPVMLQSNRCHLNKMSPYELVQHKEESDEIGGYFIVNGIEKLIRMLIVQRRNHPMAIIRPSFANRGASYSHYGIQIRSVRPDQTSQTNVLHYLNDGQVTFRFSWRKNEYLVPVVMILKALCHTSDREIFDGIIGNDVKDSFLTDRLELLLRGFKKRYPHLQNRTQVLQYLGDKFRVVFQASPDQSDLEVGQEVLDRIVLVHLGKDGSQDKFRMLLFMIRKLYSLVAGECSPDNPDATQHQEVLLGGFLYGMILKEKIDEYLQNIIAQVRMDINRGMAINFKDKRYMSRVLMRVNENIGSKMQYFLSTGNLVSQSGLDLQQVSGYTVVAEKINFYRFISHFRMVHRGSFFAQLKTTTVRKLLPESWGFLCPVHTPDGSPCGLLNHFAHKCRISTQQSDVSRIPSILYSLGVAPASHTFAAGPSLCCVQIDGKIIGWVSHEQGKIIADTLRYWKVEGKTPGLPIDLEIGYVPPSTRGQYPGLYLFGGHSRMLRPVRYLPLDKEDIVGPFEQVYMNIAVTPQEIQNNVHTHVEFTPTNILSILANLTPFSDFNQSPRNMYQCQMGKQTMGTPGVALCHRSDNKLYRLQTGQTPIVKANLYDDYGMDNFPNGFNAVVAVISYTGYDMDDAMIINKSADERGFGYGTMYKTEKVDLALNRNRGDPITQHFGFGNDEWPKEWLEKLDEDGLPYIGTYVEEGDPICAYFDDTLNKTKIKTYHSSEPAYIEEVNLIGDESNKFQELQTVSIKYRIRRTPQIGDKFSSRHGQKGVCSRKWPTIDMPFSETGIQPDIIINPHAFPSRMTIGMFVESLAGKAGALHGIAQDSTPWIFNEDDTPADYFGEQLAKAGYNYHGNEPMYSGATGEELRADIYVGVVYYQRLRHMVNDKFQVRSTGPVNSLTMQPVKGRKRHGGIRVGEMERDALIGHGTSFLLQDRLLNSSDYTQASVCRECGSILTTQQSVPRIGSISTVCCRRCSMRFEDAKKLLTKSEDGEKIFIDDSQIWEDGQGNKFVGGNETTTVAIPFVLKYLDSELSAMGIRLRYNVEPK

For assay [1], the target named is A190 subunit of RNA polymerase I (S. cerevisiae, UniProt P10964 1-1664). The assay is described as follows: cross-linking.
Sequence of A190 subunit of RNA polymerase I (P10964 whole entry): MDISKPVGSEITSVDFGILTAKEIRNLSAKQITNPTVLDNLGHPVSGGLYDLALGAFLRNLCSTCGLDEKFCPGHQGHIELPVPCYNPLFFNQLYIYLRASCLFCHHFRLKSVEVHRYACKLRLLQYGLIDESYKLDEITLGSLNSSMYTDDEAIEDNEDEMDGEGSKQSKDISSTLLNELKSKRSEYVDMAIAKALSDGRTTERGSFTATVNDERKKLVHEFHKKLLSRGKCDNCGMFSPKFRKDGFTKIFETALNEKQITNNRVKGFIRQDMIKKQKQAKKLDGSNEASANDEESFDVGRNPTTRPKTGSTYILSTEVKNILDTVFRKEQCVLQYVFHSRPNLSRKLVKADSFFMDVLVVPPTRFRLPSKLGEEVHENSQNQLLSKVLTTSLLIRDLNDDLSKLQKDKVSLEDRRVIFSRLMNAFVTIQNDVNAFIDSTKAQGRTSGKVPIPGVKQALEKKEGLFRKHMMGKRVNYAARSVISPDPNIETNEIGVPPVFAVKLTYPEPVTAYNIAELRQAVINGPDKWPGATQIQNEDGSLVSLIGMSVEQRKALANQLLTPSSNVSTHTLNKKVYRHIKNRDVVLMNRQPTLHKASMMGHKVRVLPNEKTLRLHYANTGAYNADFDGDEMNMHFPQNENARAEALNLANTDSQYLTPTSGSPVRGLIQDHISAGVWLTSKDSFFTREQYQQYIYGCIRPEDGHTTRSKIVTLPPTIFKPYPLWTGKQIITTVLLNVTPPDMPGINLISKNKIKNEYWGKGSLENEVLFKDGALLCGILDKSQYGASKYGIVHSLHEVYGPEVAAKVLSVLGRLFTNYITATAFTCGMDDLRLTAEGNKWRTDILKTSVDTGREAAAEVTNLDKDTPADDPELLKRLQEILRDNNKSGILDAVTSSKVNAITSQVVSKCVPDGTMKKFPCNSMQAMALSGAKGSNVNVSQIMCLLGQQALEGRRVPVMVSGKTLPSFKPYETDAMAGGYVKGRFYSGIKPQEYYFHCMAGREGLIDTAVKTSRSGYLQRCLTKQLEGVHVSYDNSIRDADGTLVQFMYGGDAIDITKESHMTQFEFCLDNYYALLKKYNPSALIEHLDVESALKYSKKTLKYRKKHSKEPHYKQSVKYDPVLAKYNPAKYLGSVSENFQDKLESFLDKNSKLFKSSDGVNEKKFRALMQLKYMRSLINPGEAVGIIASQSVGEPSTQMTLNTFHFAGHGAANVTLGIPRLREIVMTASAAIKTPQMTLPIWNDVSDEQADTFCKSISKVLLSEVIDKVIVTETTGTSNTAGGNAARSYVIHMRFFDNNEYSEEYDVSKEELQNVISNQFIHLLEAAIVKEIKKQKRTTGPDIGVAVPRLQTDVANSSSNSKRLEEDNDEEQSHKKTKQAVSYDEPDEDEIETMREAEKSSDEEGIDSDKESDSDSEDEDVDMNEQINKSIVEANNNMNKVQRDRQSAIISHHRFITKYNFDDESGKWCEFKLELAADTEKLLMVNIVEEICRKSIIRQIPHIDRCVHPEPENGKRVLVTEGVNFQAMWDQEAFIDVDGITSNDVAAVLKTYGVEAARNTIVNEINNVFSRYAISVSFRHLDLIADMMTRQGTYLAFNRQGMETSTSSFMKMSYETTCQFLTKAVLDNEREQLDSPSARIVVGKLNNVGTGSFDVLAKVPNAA
The target of assay [2] is B1. The assay is described as follows: cross-linking.

Take B1: in assay [1], the binding result is “binds”.

B2: A49 subunit of RNA polymerase I (natural protein, S. cerevisiae)
chain: MSVKRSVSEIEIESVQDQPSVAVGSFFKGFRAPSDTTFDLYKKKKSEKDEFVLHGENERLEYEGYTDSSSQASNQYVVGLFNPEKKSIQLYKAPVLVSKVVSKSSKNLRGPKIKSKSDTRPSALRNALGEAFGTKKAKKAIADLERNRIDSDKLTDSAIDIVDSVRTASKDLPTRAQLDEITSNDRPTPLANIDATDVEQIYPIESIIPKKELQFIRVSSILKEADKEKKLELFPYQNNSKYVAKKLDSLTQPSQMTKLQLLYYLSLLLGVYENRRVNNKTKLLERLNSPPEILVDGILSRFTVIKPGQFGRSKDRSYFIDPQNEDKILCYILAIIMHLDNFIVEITPLAHELNLKPSKVVSLFRVLGAIVKGATVAQAEAFGIPKSTAASYKIATMKVPFKLPEMTRRGRGPRR
Turning to B2, the binding result in assay [1] and in assay [2] was “binds” throughout.

These data come from PMC4359615 (Journal of Structural Biology, 2015).
